Data from patent US7960513B2, “Antibody against a human ADAM protease” (Monash University, priority 2004, dated 2011).

Target: T1, EphA3/ephrin-A5 complex (Homo sapiens, UniProt P29320+P52803)
T1 construct: Fc fusion proteins of the ephrin-A5 and EphA3 extracellular domains fused to the hinge and Fc region of human IgG1 were produced as described; expressed in transfected cells; host or cells: EphA3/HEK293 cells; ephrin-A5-Fc added as soluble pre-clustered protein
T1 sequence (P29320 21-983): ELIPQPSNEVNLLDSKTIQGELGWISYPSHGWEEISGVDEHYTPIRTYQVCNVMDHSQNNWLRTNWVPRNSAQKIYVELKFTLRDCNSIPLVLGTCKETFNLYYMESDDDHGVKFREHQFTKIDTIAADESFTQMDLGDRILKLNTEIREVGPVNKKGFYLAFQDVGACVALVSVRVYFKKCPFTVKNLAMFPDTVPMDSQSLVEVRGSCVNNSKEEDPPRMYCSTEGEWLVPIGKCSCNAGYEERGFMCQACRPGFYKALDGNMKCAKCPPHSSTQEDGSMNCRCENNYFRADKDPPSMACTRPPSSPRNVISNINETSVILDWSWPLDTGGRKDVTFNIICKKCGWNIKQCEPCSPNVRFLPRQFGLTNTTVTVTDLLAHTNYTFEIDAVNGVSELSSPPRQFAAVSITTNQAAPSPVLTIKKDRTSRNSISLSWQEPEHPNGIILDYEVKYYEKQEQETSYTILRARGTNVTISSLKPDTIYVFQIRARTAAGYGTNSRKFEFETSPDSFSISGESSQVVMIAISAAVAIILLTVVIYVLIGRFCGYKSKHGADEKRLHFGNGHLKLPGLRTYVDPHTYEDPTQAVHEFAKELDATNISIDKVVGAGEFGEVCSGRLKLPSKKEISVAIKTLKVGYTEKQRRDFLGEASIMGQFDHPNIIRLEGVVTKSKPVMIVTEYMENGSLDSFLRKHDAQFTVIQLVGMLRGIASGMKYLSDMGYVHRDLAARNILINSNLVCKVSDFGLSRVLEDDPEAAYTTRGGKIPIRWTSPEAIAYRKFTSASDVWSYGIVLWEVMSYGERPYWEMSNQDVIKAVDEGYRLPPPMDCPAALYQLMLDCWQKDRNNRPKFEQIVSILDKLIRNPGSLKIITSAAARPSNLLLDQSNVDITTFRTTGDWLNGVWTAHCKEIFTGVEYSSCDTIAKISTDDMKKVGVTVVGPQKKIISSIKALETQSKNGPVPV
T1 sequence (P52803 21-203 limits assumed): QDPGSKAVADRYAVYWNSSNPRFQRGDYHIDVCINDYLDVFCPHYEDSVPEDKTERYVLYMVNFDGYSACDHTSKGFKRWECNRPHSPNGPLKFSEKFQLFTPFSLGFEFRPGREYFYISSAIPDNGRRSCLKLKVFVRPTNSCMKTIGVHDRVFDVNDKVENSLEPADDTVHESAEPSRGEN
Test: Co-immunoprecipitation from transfected cells treated with pre-clustered ephrin-A5-Fc
Type: cell-based
Conditions: EphA3/293 cells, pre-clustered ephrin-A5-Fc 10 min
Description: FIG. 4. Mutation of acidic residues in the ADAM10 Cys-rich domain affects binding to EphA3/ephrin-A5 and cleavage of ephrin-A5. • A. In vitro binding of mutant ADAM10D+C to EphA3/ephrin-A5. ADAM10D+C[EEE-A] containing Alanine substitutions of Glu573, Glu578, Glu579 (lanes 1-4) or ADAM10D+C[RDD-A] (Ala substitutions of Arg525, Asp526, Asp527, lanes 5-8) were incubated alone (lanes 1, 5), or together with EphA3-Fc (lanes 2, 6), ephrin-A5-Fc (lanes 3, 7), or EphA3-Fc and ephrin-A5 (lanes 4, 8). Complexed proteins were extracted with Protein-A-Sepharose beads and analysed as in FIG. 2. • B. Binding of wild-type and mutant ADAM10ΔMP to EphA3 in cells. EphA3/293 cells were transfected with HA-ADAM10ΔMP or HA-ADAM10ΔMP [EEE-A]. Parental and transfected cells were treated for 10 min with or without pre-clustered ephrin-A5-Fc and lysed. Anti-HA and anti-EphA3 immunoprecipitates, and total cell lysates were analysed by Western blotting with indicated antibodies. • C. Ephrin-A5-Fc cleavage in cells expressing wt and 3A mutant ADAM10. EphA3/293 cells were transfected with full length, wild-type (wt) ADAM10, dominant-negative ADAM10ΔMP, or ADAM10 bearing alanine (3A) or 3 lysine (3K) substitutions of Glu573, 578, 579. Following exposure to clustered (+) or non-clustered ? ephrin-A5 Fc, cleaved ephrin was recovered and analysed by Western Blot as described in FIG. 1c. […]

B1: ADAM10Δpro: cell-surface ADAM10Δpro incorporating the EEE-A amino acid substitutions (protein)
chain: SGQPICGNGMVEQGEECDCGYSDQCKDDCCFDANQPEGKKCKLKPGKQCSPSQGPCCTAQCAFKSKSEKCRDDSDCAKEGICNGFTALCPASDPKPNFTDCNRHTQVCINGQCAGSICAKYDLAACTCASSDGKDDKELCHVCCMKKMAPSTCASTGSLQWSKQFSGRTITLQPGSPCNDFRGYCDVFMRCRLVDADGPLARLKKAIFSPQLYENIAEWIVAHWWAVLLMGIALIMLMAGFIKICSVHTPSSNPKLPPPKPLPGTLKRRRPPQPIQQPPRQRPRESYQMGHMRR
modifications: left off: small tags and cut ends
notes: cell-surface ADAM10Δpro incorporating the EEE-A amino acid substitutions
interaction with the EphA3/ephrin-A5 complex in cells: significantly inhibited
